Measured values from the RNAGym collection of RNA variant scans (doi:10.1073/pnas.2313332121).

B1: TPR t1 (parent)
chain: GACCAAUCUGCCCUCAGAGCUCGAGAACAUCUUCGGAUGCAGAGGAGGCAGGCUUCGGUGGCGCGAUAGCGCCAACGUCCUCAACCUCCAAUGCAUCCCACCACAUGAUGAUGCCUGAAGAGCCUUGGUUUUUUG

Variants of: B1
Test: polymerase ribozyme fitness, log enrichment relative to wild type (log ratio); higher = more active; in vitro selection for triplet polymerase activity
Summary of the method: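 A heterodimeric triplet polymerase ribozyme had each of its subunits mutagenized by PCR into a library, which was transcribed. One round of in vitro selection, done in triplicate, annealed each library with a biotinylated primer, its partner subunit and triplets, then incubated it frozen at −7 °C before gel excision of extended constructs, streptavidin-bead capture and RT-PCR. Fitness is the logarithm of genotype enrichment relative to wild-type enrichment, based on Illumina sequencing of inputs and outputs and inverse-variance-weighted replicate averages. A base-2 logarithm is used, and genotypes were kept only with ≥10 input reads and ≥1 read per output.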

First: GACCAAUCUGCCCUCAGAGCUCGAGAACAUCUUCGGAUGCAGAGGAGGCAGGCUUCGGUGGCGCGAUAGCGAUAACGUCCUCAACCUCCAAUGCAUCCCACCACAUGAUGAUGCCUGAAGAGCCUUGGUUUUUUG [C72A C73U]
Second: GACCAAUCUGCCCUCAGAGCUCGAGAACAUCUUCGGAUGCAGAGGAGGCAGGCUUCGGUGGCGCGAUAUCGCCAACGUCCUCAACCUCCAAUGCAUCCCACCAAAUGAUGAUGCCUGAAGAGCCUAGGUUUUUUG [G69U C104A U126A]
The “polymerase ribozyme fitness (log ratio)” value of the first is higher: -0.581 for the first, -1.49 for the second.

Going from GACCAAUCUGCCCUCAGAGCUCGAGAACAUCUUCGGAUGCAGAGGAGGCAGGCUUCGGUGGCGCGAUAGCGCCAGCGUCCUCAACCUCCAAUGCAUCCCACCACAGGAUGAUGCCUGAAGAGCAUUGGUUUUUUG [A75G U106G C124A] to GACCAAUAUGCCCUCAGAGCUCGAGAACAUCUUCGGAUGCAGAGGAGGCAGGCUUCGGUGGCGCGAUACCGCCAACGUCCUCAACCUCCAAUGCAUCCCACCACAUGAUCAUGCCUGAAGAGCCUUGGUUUUUUG [C8A G69C G110C], the “polymerase ribozyme fitness (log ratio)” value falls from 0.661 to -4.93.

GACCAAUCUGCCCUCAGAGCUCGAGAACAUCUUCGGAUGCUGAGGAGGCAGGCUUCGGUGGCGCGAUAGCGCCAACGUUCUCAACCUCCAAUGCAUCCCACCACAUGAUGAUGCCUGAAGAGCCUUGGUUUUUUG [A41U C79U] and GACCAAUCUGCCCUCAGAGCUCGAGAACAUCUUCGGAUGCAGAGGAGGCAGGCUUCCGUGUCGCGAUAGCGCCAACGUCCUCAACCUCCAAUGCAUCCCACCACAUGAUGAUGCCUGAAGAGCCUUGGUUUUUUG [G57C G61U] are within 0.2 log units of each other in “polymerase ribozyme fitness (log ratio)” value: -0.893 for the first, -0.733 for the second.

Going from GACCAAUGUGCCCUCAGAGCUUGAGAACAUCUUCGGAUGCAGAGGAGGCAGGAUUCGGUGGCGCGAUAGCGCCAACGUCCUCAACCUCCAAUGCAUCCCAACACAUGAUGAUGCCUGAAGGGCAUUGGUUUUUUG [C8G C22U C53A C101A A121G C124A] to GACCAAUCUGCCCUCAGAGCUCGAGAACAUCUUCGGAUGCAGAGGUGGCAGGCUUCGGUGGAGCGAUAGCGCCAACGUCCUCAACCUCCAAUGCAUCCCACCACAUGAUGAUGCCUGAAGAGCCUUGGUUUUUUG [A46U C62A], the “polymerase ribozyme fitness (log ratio)” value rises from -3.25 to -2.13.

Compared with GACCAAUCUGCACUCAGAGAUCGAGAACAUCUUCGGAUGCAGAGGAGGCAGGCUUCGGUGGCACGAUAGCGCCAACGUCCUCAACCACCAAUGCAUCCCACCACAUGAUGAUGCCUGAAGAUCCUUGGUUUUUUG [C12A C20A G63A U87A G122U], GACCAAUCUGCCCUCAGAGCUCGAGAACAUCUUCGGAUGCAGAGGAGGCAGGCUUUGGUGGCGCGAUAGCGCCAACGUCCUCAACCUCCGAUGCAUCCCACCACAUGAUGAUGCCUGAAGAGCCUUGGUUUUUUG [C56U A90G] is higher in “polymerase ribozyme fitness (log ratio)” value: -4.81 for the first, 0.117 for the second.

Compared with GACCAAUCUGCCCACAGACCUCGAGAACAUCUUCGGAUGCAGAGGAGGCAGGCUUCGGUGGCGCGAUAGCGCCAACGUCCUCCACCUCAAAUGCAUCCCACCACAUGAUGCUGGCUGAAGAGCCUUGGUUUUUUG [U14A G19C A83C C89A A111C C114G], GACCAAUCUGCCCUCAGAGCUCGAGAACAUCUUCGGAUGCAGAGGAGGCAGGCUUCGGUGGCGCGAUAUCGCCAACGUCCUCAACCUCCAAUGCAUCCCACAACAUGAUGAUGCCUGAAGAGCCUUGGUUUUUUG [G69U C102A] is higher in “polymerase ribozyme fitness (log ratio)” value: -5.57 for the first, -1.4 for the second.

Compared with GACCAAUCUGCCCUCAGAGCUCGAGAACAUCUUCGUAUGCAGAGGAGGUAGGCUUCGGUGGCGCGAUAGCGCCAACGUCCUCAACCUCCAAUGCUUCCCACCACAUGAUGAUGCCUGAAGAGCCUUGGUUUUUUG [G36U C49U A95U], GACCAAUCUGCCCUCAGAGCUCGAGAACAUCUUCGGAUGCAGAGGAGGCAGGCUUCGGUGGCGCGAUAGUGCCAACGUCCUCAACCUCCAAUGCAUCCCAUCACAUGAUGAUGCCUCAAGAGCCUUGGUUUUUUG [C70U C101U G117C] is lower in “polymerase ribozyme fitness (log ratio)” value: -3.5 for the first, -5.37 for the second.

Compared with GACCAAUCUGCCCUCAGAGCUCGAGAACAUCUUCGGAUGCAGAGGAGGCAGGCUUCGGUGGCGCGAUAACGCCAACGUCCAUAACCUCCAAUGCAUCCCACCACAUGAUGAUGCCUGAGGAUCCAUGGCUUUUUG [G69A U81A C82U A119G G122U U125A U129C], GACCAAUCUGCACUCAGAGCUCGAGAACAUCUUCGGAUGCAGAGGAGGCAGGCUUCGGUGGCGCGAUAGCGCCAACGUCCUCAACCUCCAAUGCAUCCCACCACAUGAUGAUGCCUUAAGAGCCUUGGUUUUUUG [C12A G117U] is higher in “polymerase ribozyme fitness (log ratio)” value: -5.05 for the first, -1.72 for the second.

GACCAAUCUGCCCUCAGAGCUCGAGAACAUCUUCGGAUGCAGAGGAGCCAGGCUUCGGUGGCGCGAUAGCGCCAACGUCCUCAACUUCCAAUGCAUCCCACCACAUGAUGAUGCAUGAAGAGCCUUGGUUUUUUG [G48C C86U C115A] and GACCAAUCUGCCCUCAGAGCUCGAGAACAUCUUCGGAUGCAGAGGAGGCAGGCUUCGGUGGCGCGAUAGCGCCAACGUCCUCAUCCUCCAAUGCAUCCCACUACAUGAUGAUGCCUGAAGAGUCUUGGUUUUUUG [A84U C102U C123U] are within 0.2 log units of each other in “polymerase ribozyme fitness (log ratio)” value: -1.07 for the first, -1.1 for the second.

Compared with GUCCAAUCUGCCCUCAGAGCUCGAGAACAUCCUCGGAUGCAGAGGAGGCAGGCUUCGGUGGCGCGAUAGCGCCAACGUACUCAACCUCCAAUGCAUCCCACCACAUGAUGAUGCCUGAAGAGCCUUGGUUUUUUG [A2U U32C C79A], GACCAAUCUGCCCUCAGAGCUCGAGAACAUCUUCGGAUGCAGACGAGGCAGGCUUCGGUGGCGCGAUAGCGCCAACGUCCUCAACCUCCAAUGCUUCCCACCACAUGAUAAUGCCUGAAGAGCCUUGGUUUUUUG [G44C A95U G110A] is higher in “polymerase ribozyme fitness (log ratio)” value: -4.3 for the first, -2.88 for the second.

For GACCAAUCUGCCCUCAGAGCUCGAGAACAUCUUCGGAUGCAGAGGAGACAGGCUUCGGUGGCGCGAUAGCGCCAACGUCCUCAACCUCCAAUGCAUCCCACCACAUGAUGAUGCCUGAAGAGCCUUGGUUUUGUG [G48A U133G], the “polymerase ribozyme fitness (log ratio)” value was -1.38.
